# Results as given in publication PMC5880107, “The Sequence-specific Peptide-binding Activity of the Protein Sulfide Isomerase AGR2 Directs Its Stable Binding to the Oncogenic Receptor EpCAM*^([image sbox.jpg])” (Molecular & Cellular Proteomics : MCP, 2018).
# B1: His-AGR2 WT (mature AGR2, amino acids 21-175, N-terminal 6xHis tag; plasmid pmAGR2) [human] / His-EpEX-CO, extracellular domain of EpCAM (amino acids 24-265), N-terminal 6xHis tag [human] (parent)
# chain 1: RDTTVKPGAKKDTKDSRPKLPQTLSRGWGDQLIWTQTYEEALYKSKTSSKPLMIIHHLDECPHSQALKKVFAENKEIQKLAEQFVLLNLVYETTDKHLSPDGQYVPRIMFVDPSLTVRADITGRYSNRLYAYEPADTALLLDNMKKALKLLKTEL
# chain 2: QEECVCENYKLAVNCFVNNNRQCQCTSVGAQNTVICSKLAAKCLVMKAEMNGSKLGRRAKPEGALQNNDGLYDPDCDESGLFKAKQCNGTSMCWCVNTAGVRRTDKDTEITCSERVRTYWIIIELKHKAREKPYDSKSLRTALQKEITTRYQLDPKFITSILYENNVITIDLVQNSSQKTQNDVDIADVAYYFEKDVKGESLFHSKKMDLTVNGEQLDLDPGQTLIYYVDEKAPEFSMQGLK
# Variants of: B1
# Assay: ELISA (His-EpCAM solid phase; His-AGR2 mobile phase)
# Details: with His-EpEX-CO, point at 0.5 μg AGR2 (highest dose of the titration), +DTT Blocking (DTT only in the blocking step, before AGR2 binding), read off a plot
row,response [RLU],Variant
1,110,chain 1 RDTTVKPGAKKDTKDSRPKLPQTLSRGWGDQLIWTQTYEEALYKSKTSSKPLMIIHHLDECPHSQALKKVFAENKEIQKLAEQFVLLNLVYETTDKHLSPDGQYVPRIMFVDPALTVRADITGRYSNRLYAYEPADTALLLDNMKKALKLLKTEL

# Same assay, conditions: with His-EpEX-CO, point at 0.5 μg AGR2 (highest dose of the titration), no DTT in the blocking step, read off a plot
row,response [RLU],Variant
1,160,chain 1 RDTTVKPGAKKDTKDSRPKLPQTLSRGWGDQLIWTQTYEEALYKSKTSSKPLMIIHHLDECPHSQALKKVFAENKEIQKLAEQFVLLNLVYETTDKHLSPDGQYVPRIMFVDPALTVRADITGRYSNRLYAYEPADTALLLDNMKKALKLLKTEL
